# Source: US20260201064A1 (ISU ABXIS, published 2026)
# T1: recombinant human ASM protein (human, UniProt P17405 47-630)
# T1 construct: Recombinant human ASM in solution; also called acid sphingomyelinase (ASM) protein
# T1 sequence: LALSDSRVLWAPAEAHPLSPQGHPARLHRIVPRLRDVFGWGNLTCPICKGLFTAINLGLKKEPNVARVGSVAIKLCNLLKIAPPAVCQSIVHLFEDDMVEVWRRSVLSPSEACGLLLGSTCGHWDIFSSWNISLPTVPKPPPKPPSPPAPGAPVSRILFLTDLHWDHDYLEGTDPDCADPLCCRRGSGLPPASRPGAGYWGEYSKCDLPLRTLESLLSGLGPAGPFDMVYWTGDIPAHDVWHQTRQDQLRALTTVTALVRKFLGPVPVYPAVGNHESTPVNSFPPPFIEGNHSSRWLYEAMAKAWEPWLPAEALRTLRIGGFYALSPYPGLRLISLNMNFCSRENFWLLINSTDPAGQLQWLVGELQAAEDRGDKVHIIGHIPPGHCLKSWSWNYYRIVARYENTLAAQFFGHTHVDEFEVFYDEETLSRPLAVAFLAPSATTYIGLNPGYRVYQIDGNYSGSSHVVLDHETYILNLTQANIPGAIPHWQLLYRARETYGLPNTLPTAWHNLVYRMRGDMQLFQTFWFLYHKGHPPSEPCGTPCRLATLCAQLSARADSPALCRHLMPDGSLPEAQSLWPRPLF
# Biological target: T1, recombinant human ASM protein
# Assay: BLI (Octet), antibody on AHC sensor
# Method: The binding affinity, to the ASM protein, of the produced antibodies specifically binding to the ASM protein and the interactive dynamics therebetween were measured using an Octet® QK384 system (Pall Life Sciences).
# First, an antibody specifically binding to the ASM protein produced in Example 1 was captured using an anti-human IgG Fc capture (AHC) biosensor, and 1.25, 2.5, 5, 10, or 20 nM recombinant human ASM protein solution was added thereto. […] The association constant (Kₐ), dissociation constant (Kd), and equilibrium dissociation constant (KD) for each antibody were determined using Octet® analysis software (Pall Life® Sciences). As a result, the binding affinities, to the human ASM protein, of the antibodies with mutations in the heavy chain CDR regions of the antibody #9104 as depicted in Table 1 are shown in Table 5, and the binding affinities, to the human ASM protein, of the antibodies with mutations of the light chain CDR regions in the antibody #9104 as depicted in Table 2 are shown in Table 6.
# After the small-scale expression in the ExpiCHO cell line as described above, the binding affinity to the human ASM protein was investigated as described in Experimental Example 1. Specifically, the antibody produced by a combination of #9104v-H33 heavy chain variable region and #9104v-L23 light chain variable region was not expressed and thus excluded in the analysis of binding affinity to ASM protein.
Binder,Kd [nM],koff [s⁻¹],kon [M⁻¹ s⁻¹]
"#9104a-C1 (antibody, human IgG4 S228P, lambda, V domains shown, VH of #9104v-H10 with VL of #9104v-L23; full-length IgG, lambda) VH: EVQLLESGGGLVQPGGSLRLSCAASGFTFSNYYMSWVRQAPGKGLEWVSGIYYGNGIPYYADSVKDRFTISRDNSKNTLYLQMNSLRAEDTAVYYCARDTPGFDYWGQGTLVTVSS VL: QSVLTQPPSASGTPGQRVTISCTGSSSNIGNNAVNWYQQLPGTAPKLLIYYDQFRPSGVPDRFSGSKSGTSASLAISGLRSEDEADYYCGAWDYSLSAYVFGGGTKLTVLG",0.139,3.76e-05,271000
"#9104a-C2 (antibody, human IgG4 S228P, lambda, V domains shown, VH of #9104v-H11 with VL of #9104v-L23; full-length IgG, lambda) VH: EVQLLESGGGLVQPGGSLRLSCAASGFTFSNYYMSWVRQAPGKGLEWVSGIYYGSGIPYYADSVKERFTISRDNSKNTLYLQMNSLRAEDTAVYYCARDTPGFDYWGQGTLVTVSS VL: QSVLTQPPSASGTPGQRVTISCTGSSSNIGNNAVNWYQQLPGTAPKLLIYYDQFRPSGVPDRFSGSKSGTSASLAISGLRSEDEADYYCGAWDYSLSAYVFGGGTKLTVLG",0.172,5.28e-05,306000
"#9104a-C3 (antibody, human IgG4 S228P, lambda, V domains shown, VH of #9104v-H13 with VL of #9104v-L23; full-length IgG, lambda) VH: EVQLLESGGGLVQPGGSLRLSCAASGFTFSNYYMSWVRQAPGKGLEWVSGIYYGSGIPYYANSVKGRFTISRDNSKNTLYLQMNSLRAEDTAVYYCARDTPGFDYWGQGTLVTVSS VL: QSVLTQPPSASGTPGQRVTISCTGSSSNIGNNAVNWYQQLPGTAPKLLIYYDQFRPSGVPDRFSGSKSGTSASLAISGLRSEDEADYYCGAWDYSLSAYVFGGGTKLTVLG",0.176,4.55e-05,259000
"#9104a-C4 (antibody, human IgG4 S228P, lambda, V domains shown, VH of #9104v-H17 with VL of #9104v-L23; full-length IgG, lambda) VH: EVQLLESGGGLVQPGGSLRLSCAASGFTFSNYYMSWVRRAPGKGLEWVSGIYYGSGTPYYAASVKGRFTISRDNSKNTLYLQMNSLRAEDTAVYYCARDTPGFDYWGQGTLVTVSS VL: QSVLTQPPSASGTPGQRVTISCTGSSSNIGNNAVNWYQQLPGTAPKLLIYYDQFRPSGVPDRFSGSKSGTSASLAISGLRSEDEADYYCGAWDYSLSAYVFGGGTKLTVLG",0.203,6.42e-05,317000
"#9104a-C5 (antibody, human IgG4 S228P, lambda, V domains shown, VH of #9104v-H19 with VL of #9104v-L23; full-length IgG, lambda) VH: EVQLLESGGGLVQPGGSLRLSCAASGFTFSNYYMSWVRQAPGKGLEWVSGIYYGSGVPYYADSVKGRFTISRDNSKNTLYLQMNSLRAEDTAVYYCARDTPGFDYWGQGTLVTVSS VL: QSVLTQPPSASGTPGQRVTISCTGSSSNIGNNAVNWYQQLPGTAPKLLIYYDQFRPSGVPDRFSGSKSGTSASLAISGLRSEDEADYYCGAWDYSLSAYVFGGGTKLTVLG",0.192,6.46e-05,337000
"#9104a-C6 (antibody, human IgG4 S228P, lambda, V domains shown, VH of #9104v-H27 with VL of #9104v-L23; full-length IgG, lambda) VH: EVQLLESGGGLVQPGGSLRLSCAASGFTFSNYYMSWVRQAPGKGLEWVSGTYYDSGYVYYADSVKGRFTISRDNSKNTLYLQMNSLRAEDTAVYYCARDTPGFDYWGQGTLVTVSS VL: QSVLTQPPSASGTPGQRVTISCTGSSSNIGNNAVNWYQQLPGTAPKLLIYYDQFRPSGVPDRFSGSKSGTSASLAISGLRSEDEADYYCGAWDYSLSAYVFGGGTKLTVLG",0.928,0.000109,117000
"#9104a-C7 (antibody, human IgG4 S228P, lambda, V domains shown, VH of #9104v-H31 with VL of #9104v-L23; full-length IgG, lambda) VH: EVQLLESGGGLVQPGGSLRLSCAASGFTFSNYYMSWVRQAPGKGLEWVSGVYYGSGTPYYADSVKGRFTISRDNSKNTLYLQMNSLRAEDTAVYYCARDTPGFDYWGQGTLVTVSS VL: QSVLTQPPSASGTPGQRVTISCTGSSSNIGNNAVNWYQQLPGTAPKLLIYYDQFRPSGVPDRFSGSKSGTSASLAISGLRSEDEADYYCGAWDYSLSAYVFGGGTKLTVLG",0.152,4.56e-05,300000
"#9104a-D1 (antibody, human IgG4 S228P, lambda, V domains shown, VH of #9104v-H10 with VL of #9104v-L64; full-length IgG, lambda) VH: EVQLLESGGGLVQPGGSLRLSCAASGFTFSNYYMSWVRQAPGKGLEWVSGIYYGNGIPYYADSVKDRFTISRDNSKNTLYLQMNSLRAEDTAVYYCARDTPGFDYWGQGTLVTVSS VL: QSVLTQPPSASGTPGQRVTISCTGSSSNIGNNAVNWYQQLPGTAPKLLIYYDYFSHSGVPDRFSGSKSGTSASLAISGLRSEDEADYYCGAWDYSLSAYVFGGGTKLTVLG",0.0948,2.79e-05,294000
"#9104a-D2 (antibody, human IgG4 S228P, lambda, V domains shown, VH of #9104v-H11 with VL of #9104v-L64; full-length IgG, lambda) VH: EVQLLESGGGLVQPGGSLRLSCAASGFTFSNYYMSWVRQAPGKGLEWVSGIYYGSGIPYYADSVKERFTISRDNSKNTLYLQMNSLRAEDTAVYYCARDTPGFDYWGQGTLVTVSS VL: QSVLTQPPSASGTPGQRVTISCTGSSSNIGNNAVNWYQQLPGTAPKLLIYYDYFSHSGVPDRFSGSKSGTSASLAISGLRSEDEADYYCGAWDYSLSAYVFGGGTKLTVLG",0.149,5.22e-05,351000
"#9104a-D3 (antibody, human IgG4 S228P, lambda, V domains shown, VH of #9104v-H13 with VL of #9104v-L64; full-length IgG, lambda) VH: EVQLLESGGGLVQPGGSLRLSCAASGFTFSNYYMSWVRQAPGKGLEWVSGIYYGSGIPYYANSVKGRFTISRDNSKNTLYLQMNSLRAEDTAVYYCARDTPGFDYWGQGTLVTVSS VL: QSVLTQPPSASGTPGQRVTISCTGSSSNIGNNAVNWYQQLPGTAPKLLIYYDYFSHSGVPDRFSGSKSGTSASLAISGLRSEDEADYYCGAWDYSLSAYVFGGGTKLTVLG",0.229,6.73e-05,294000
"#9104a-D4 (antibody, human IgG4 S228P, lambda, V domains shown, VH of #9104v-H17 with VL of #9104v-L64; full-length IgG, lambda) VH: EVQLLESGGGLVQPGGSLRLSCAASGFTFSNYYMSWVRRAPGKGLEWVSGIYYGSGTPYYAASVKGRFTISRDNSKNTLYLQMNSLRAEDTAVYYCARDTPGFDYWGQGTLVTVSS VL: QSVLTQPPSASGTPGQRVTISCTGSSSNIGNNAVNWYQQLPGTAPKLLIYYDYFSHSGVPDRFSGSKSGTSASLAISGLRSEDEADYYCGAWDYSLSAYVFGGGTKLTVLG",0.206,5.09e-05,248000
"#9104a-D5 (antibody, human IgG4 S228P, lambda, V domains shown, VH of #9104v-H19 with VL of #9104v-L64; full-length IgG, lambda) VH: EVQLLESGGGLVQPGGSLRLSCAASGFTFSNYYMSWVRQAPGKGLEWVSGIYYGSGVPYYADSVKGRFTISRDNSKNTLYLQMNSLRAEDTAVYYCARDTPGFDYWGQGTLVTVSS VL: QSVLTQPPSASGTPGQRVTISCTGSSSNIGNNAVNWYQQLPGTAPKLLIYYDYFSHSGVPDRFSGSKSGTSASLAISGLRSEDEADYYCGAWDYSLSAYVFGGGTKLTVLG",0.13,3.39e-05,261000
"#9104a-D6 (antibody, human IgG4 S228P, lambda, V domains shown, VH of #9104v-H27 with VL of #9104v-L64; full-length IgG, lambda) VH: EVQLLESGGGLVQPGGSLRLSCAASGFTFSNYYMSWVRQAPGKGLEWVSGTYYDSGYVYYADSVKGRFTISRDNSKNTLYLQMNSLRAEDTAVYYCARDTPGFDYWGQGTLVTVSS VL: QSVLTQPPSASGTPGQRVTISCTGSSSNIGNNAVNWYQQLPGTAPKLLIYYDYFSHSGVPDRFSGSKSGTSASLAISGLRSEDEADYYCGAWDYSLSAYVFGGGTKLTVLG",1.07,8.7e-05,81200
"#9104a-D7 (antibody, human IgG4 S228P, lambda, V domains shown, VH of #9104v-H31 with VL of #9104v-L64; full-length IgG, lambda) VH: EVQLLESGGGLVQPGGSLRLSCAASGFTFSNYYMSWVRQAPGKGLEWVSGVYYGSGTPYYADSVKGRFTISRDNSKNTLYLQMNSLRAEDTAVYYCARDTPGFDYWGQGTLVTVSS VL: QSVLTQPPSASGTPGQRVTISCTGSSSNIGNNAVNWYQQLPGTAPKLLIYYDYFSHSGVPDRFSGSKSGTSASLAISGLRSEDEADYYCGAWDYSLSAYVFGGGTKLTVLG",0.198,5.69e-05,288000
"#9104a-D8 (antibody, human IgG4 S228P, lambda, V domains shown, VH of #9104v-H33 with VL of #9104v-L64; full-length IgG, lambda) VH: EVQLLESGGGLVQPGGSLRLSCAASGFTFSNYYMSWVRQAPGKGLEWVSGVYYPSGNPYYADSVKGRFTISRDNSKNTLYLQMNSLRAEDTAVYYCARDTPGFDYWGQGTLVTVSS VL: QSVLTQPPSASGTPGQRVTISCTGSSSNIGNNAVNWYQQLPGTAPKLLIYYDYFSHSGVPDRFSGSKSGTSASLAISGLRSEDEADYYCGAWDYSLSAYVFGGGTKLTVLG",0.177,3.33e-05,188000
"#9104a-E1 (antibody, human IgG4 S228P, lambda, V domains shown, VH of #9104v-H10 with VL of #9104v-L65; full-length IgG, lambda) VH: EVQLLESGGGLVQPGGSLRLSCAASGFTFSNYYMSWVRQAPGKGLEWVSGIYYGNGIPYYADSVKDRFTISRDNSKNTLYLQMNSLRAEDTAVYYCARDTPGFDYWGQGTLVTVSS VL: QSVLTQPPSASGTPGQRVTISCTGSSSNIGNNAVNWYQQLPGTAPKLLIYYDYYQSSGVPDRFSGSKSGTSASLAISGLRSEDEADYYCGAWDYSLSAYVFGGGTKLTVLG",0.289,6.21e-05,215000
